Substitutions are numbered along the chain they refer to.
T1: mouse PD1 (mouse, UniProt Q02242 25-288)
T1 sequence (looked up): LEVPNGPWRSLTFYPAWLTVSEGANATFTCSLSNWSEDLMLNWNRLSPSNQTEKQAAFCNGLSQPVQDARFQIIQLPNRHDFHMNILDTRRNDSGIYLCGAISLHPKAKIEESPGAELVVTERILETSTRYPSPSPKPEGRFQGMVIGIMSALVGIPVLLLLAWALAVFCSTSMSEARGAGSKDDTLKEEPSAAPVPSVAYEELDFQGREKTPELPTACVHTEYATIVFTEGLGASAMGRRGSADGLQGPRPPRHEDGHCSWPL

T2: mouse CD20 (mouse, UniProt P19437 1-291)
T2 construct: whole, on cells; also called mCD20; murine CD20
T2 sequence (looked up): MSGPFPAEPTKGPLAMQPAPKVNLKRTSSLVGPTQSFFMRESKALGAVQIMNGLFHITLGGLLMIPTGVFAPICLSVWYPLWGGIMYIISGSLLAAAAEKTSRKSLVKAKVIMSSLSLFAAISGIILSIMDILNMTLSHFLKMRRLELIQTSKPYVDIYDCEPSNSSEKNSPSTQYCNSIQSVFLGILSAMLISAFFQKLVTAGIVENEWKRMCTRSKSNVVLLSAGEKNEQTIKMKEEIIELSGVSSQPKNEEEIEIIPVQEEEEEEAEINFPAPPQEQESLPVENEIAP

B1: 1B12IgG1EN (antibody)
heavy 1: QVQLQQPGAELVRPGTSVKLSCKASGYTFTSYWMHWIKQRPGQGLEWIGVIDPSDNYTKYNQKFKGKATLTVDTSSSTAYMQLSSLTSEDSAVYFCAREGYYGSSPWFAYWGQGTLVTVSSASTKGPSVFPLAPSSKSTSGGTAALGCLVKDYFPEPVTVSWNSGALTSGVHTFPAVLQSSGLYSLSSVVTVPSSSLGTQTYICNVNHKPSNTKVDKKVEPKSCDKTHTCPPCPAPEAEGAPSVFLFPPKPKDTLMISRTPEVTCVVVDVSHEDPEVKFNWYVDGVEVHNAKTKPREEQYNSTYRVVSVLTVLHQDWLNGKEYKCKVSNKALPSSIEKTISKAKGQPREPQVYTLPPCRDELTKNQVSLWCLVKGFYPSDIAVEWESNGQPENNYKTTPPVLDSDGSFFLYSKLTVDKSRWQQGNVFSCSVMHEALHNHYTQKSLSLSPGK
heavy 2: B1 heavy 1 with Y353C, C358S, W370S, L372A, Y411V, H439R, Y440F
light: QIVMSQSPAILSASPGEKVTMTCRARSSVSYIHWYQQKPGSSPKPWIYATSNLASGVPGRFSGSGSGTSYSLTITRVEAEDAATYYCQQWSSKPPTFGGGTKLEIKRTVAAPSVFIFPPSDEQLKSGTASVVCLLNNFYPREAKVQWKVDNALQSGNSQESVTEQDSKDSTYSLSSTLTLSKADYEKHKVYACEVTHQGLSSPVTKSFNRGEC
notes: Control, bivalent anti-mCD20 IgG with knob and hole-star heavy chains; also called 1B12lgG1EN
B2: 18B12-scFvFc (scFv, V domains shown)
VH: QVQLQQPGAELVRPGTSVKLSCKASGYTFTSYWMHWIKQRPGQGLEWIGVIDPSDNYTKYNQKFKGKATLTVDTSSSTAYMQLSSLTSEDSAVYFCAREGYYGSSPWFAYWGQGTLVTVSS
VL: QIVMSQSPAILSASPGEKVTMTCRARSSVSYIHWYQQKPGSSPKPWIYATSNLASGVPGRFSGSGSGTSYSLTITRVEAEDAATYYCQQWSSKPPTFGGGTKLEIK

What was measured:
mouse PD1 [1] = target: T1, mouse PD1; assay: cell-based or functional assay
mouse CD20 [2] = target: T2, mouse CD20; assay: flow cytometry on MC38/mCD20 cells
Protocol: (§1) Cells (HEK 293, MC38 over-expressing mCD20 or Jurkat over-expressing mPD1) were resuspended in FACS wash (PBS with 1% FBS) at 1×10⁶ cells/mL. The staining was performed in 1×10⁵ cells per well. The antibodies were diluted with a ratio of 1:5 from a starting concentration of 1.3×10⁻⁰⁷ M. The diluted antibodies were then added into the wells containing cells. Cells were stained for 30 min at 2-8° C. and washed twice with FACS wash buffer. APC-conjugated goat anti-human IgG (Jackson Immuno Research, 109-607-003, 1:400) was added to stain the cells for 30 min at 2-8° C. Following washing, cells were fixed in 2% paraformaldehyde for 30 min at 2-8° C. After two washes, stained cells were analyzed using BD LSRFortessa™ FACS instrument. The results were analyzed by FlowJo. FSC/SSC gates were used to select mononuclear cells.

mouse CD20 [3] = target: T2, mouse CD20; assay: flow cytometry on HEK293/mCD20 cells
Protocol: as §1

mouse PD1 [4] = target: T1, mouse PD1; assay: flow cytometry on Jurkat/mPD1 cells
Protocol: as §1

| Molecule | Max % inhibition, luciferase bioassay, 2.5 nM CD3 bsAb (mouse PD1 [1]) [%] | Max MFI (mouse CD20 [2]) [MFI] | Max MFI (mouse CD20 [3]) [MFI] | Max MFI (mouse PD1 [4]) [MFI] | Max % inhibition, luciferase bioassay, 1nM CD3 bsAb (mouse PD1 [1]) [%] | EC50 (mouse CD20 [2]) [nM] | EC50 (mouse CD20 [3]) [nM] | binding result (mouse PD1 [4]) |
| --- | --- | --- | --- | --- | --- | --- | --- | --- |
| REGN1932 (hIgG1 control) (antibody) | 3 | 140 | 14.3 | 90.4 |  |  |  |  |
| Single arm mPDL1 WT-Fc (from UniProt Q9EP73 19-239) (Fc fusion) |  | 94.9 |  |  |  |  |  |  |
| B1 | 0 | 42000 | 28200 | 118 | 19 | 1.71 | 13.5 | no binding (tested: starting concentration of 1.3×10^-07 M) |
| B2 |  | 48300 |  | 198 |  | 18 |  | no binding (tested: starting concentration of 1.3×10^-07 M) |
